Data taken from article PMC9482650, “Quantitative fragmentomics allow affinity mapping of interactomes” (Nature Communications, 2022).

How the values were obtained:
Test in all cases: holdup assay
Set-up in all cases: key: below the threshold = too weak to quantify, mostly under pKd 3.1 to 4
[1] = target: DLG4_1, P78352
[2] = target: T1, PDZD2_2, O15018
T1 sequence (O15018 329-429, limits assumed, looked up): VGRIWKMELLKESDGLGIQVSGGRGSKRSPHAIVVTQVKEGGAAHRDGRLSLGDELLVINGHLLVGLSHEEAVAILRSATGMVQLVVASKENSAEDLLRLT

[3] = target: GORASP2, Q9H8Y8
[4] = target: MAST2, Q6P0Q8
[5] = target: T2, DFNB31_3, Q9P202
T2 sequence (Q9P202 811-907, limits assumed, looked up): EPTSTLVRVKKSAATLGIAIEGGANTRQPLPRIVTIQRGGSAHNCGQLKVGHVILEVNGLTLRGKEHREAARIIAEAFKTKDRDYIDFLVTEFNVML

[6] = target: MAGI2_5, Q86UL8
[7] = target: SNX27, Q96L92
[8] = target: NHERF4_4, Q86UT5
[9] = target: DLG4_3, P78352
[10] = target: GRIP2_3, Q9C0E4
[11] = target: SCRIB_1, Q14160
[12] = target: LNX1_1, Q8TBB1
[13] = target: Inadl_2, Q8NI35
[14] = target: Inadl_8, Q8NI35
[15] = target: T3, TJP3_3, O95049
T3 sequence (O95049 375-456, limits assumed, looked up): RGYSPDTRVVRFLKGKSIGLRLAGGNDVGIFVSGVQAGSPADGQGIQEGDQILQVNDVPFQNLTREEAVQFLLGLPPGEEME

[16] = target: T4, HTRA4, P83105
T4 sequence (P83105 378-476, limits assumed, looked up): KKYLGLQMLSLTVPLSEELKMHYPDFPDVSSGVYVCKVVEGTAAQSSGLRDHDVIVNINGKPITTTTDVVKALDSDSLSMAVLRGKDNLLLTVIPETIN

[17] = target: DLG2_2, Q15700
[18] = target: LNX1_3, Q8TBB1
[19] = target: DLG1_3, Q12959
[20] = target: MAGI2_3, Q86UL8
[21] = target: FRMPD2_1, Q68DX3
[22] = target: FRMPD4, Q14CM0
[23] = target: T5, APBA2_1, Q99767
T5 sequence (Q99767 563-664, limits assumed, looked up): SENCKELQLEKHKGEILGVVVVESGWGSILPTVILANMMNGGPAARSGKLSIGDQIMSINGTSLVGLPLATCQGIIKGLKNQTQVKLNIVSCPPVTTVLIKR

[24] = target: SCRIB_2, Q14160
[25] = target: T6, DLG3_3, Q92796
T6 sequence (Q92796 374-475, limits assumed, looked up): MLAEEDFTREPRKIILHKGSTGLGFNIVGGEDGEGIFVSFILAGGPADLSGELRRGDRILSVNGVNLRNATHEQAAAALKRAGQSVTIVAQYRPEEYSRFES

[26] = target: LIMK2, P53671
[27] = target: NHERF4_1, Q86UT5-2
[28] = target: T7, NHERF3_1, Q5T2W1
T7 sequence (Q5T2W1 4-100, limits assumed, looked up): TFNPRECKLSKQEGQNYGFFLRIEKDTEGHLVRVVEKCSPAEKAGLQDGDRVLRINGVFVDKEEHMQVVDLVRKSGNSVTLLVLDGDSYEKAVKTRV

[29] = target: T8, GRIP1_7, Q9Y3R0
T8 sequence (Q9Y3R0 999-1096, limits assumed, looked up): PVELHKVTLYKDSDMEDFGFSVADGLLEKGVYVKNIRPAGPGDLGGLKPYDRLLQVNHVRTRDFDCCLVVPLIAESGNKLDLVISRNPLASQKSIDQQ

[30] = target: DLG4_2, P78352
[31] = target: GOPC, Q9HD26
[32] = plain residues with an end cap or a label only (N-terminal biotin on a linker: gsgsgs; C-terminal amide)
[33] = plain residues with an end cap or a label only (N-terminal biotin on a linker: ttds)

Sequence of SCRIB_1, Q14160 (Q14160 718-814): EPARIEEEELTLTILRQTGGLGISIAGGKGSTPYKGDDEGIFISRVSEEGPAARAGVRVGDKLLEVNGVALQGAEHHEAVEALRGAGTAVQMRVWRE
Sequence of DLG4_1, P78352 (P78352 62-152): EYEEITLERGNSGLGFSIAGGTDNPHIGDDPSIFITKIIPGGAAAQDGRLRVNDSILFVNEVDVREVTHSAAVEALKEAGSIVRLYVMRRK
Sequence of DLG1_3, Q12959 (Q12959 457-571): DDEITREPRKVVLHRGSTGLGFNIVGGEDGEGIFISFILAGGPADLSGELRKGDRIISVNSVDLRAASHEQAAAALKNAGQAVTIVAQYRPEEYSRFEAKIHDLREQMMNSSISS
Sequence of FRMPD4, Q14CM0 (Q14CM0 67-160): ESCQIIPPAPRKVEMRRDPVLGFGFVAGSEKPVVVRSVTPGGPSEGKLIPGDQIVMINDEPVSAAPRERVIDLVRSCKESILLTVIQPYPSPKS
Sequence of MAGI2_5, Q86UL8 (Q86UL8 915-1017): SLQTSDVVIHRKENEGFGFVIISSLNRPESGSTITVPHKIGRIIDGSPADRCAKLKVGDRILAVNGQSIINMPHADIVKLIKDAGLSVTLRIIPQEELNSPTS
Sequence of NHERF4_4, Q86UT5 (Q86UT5 464-550): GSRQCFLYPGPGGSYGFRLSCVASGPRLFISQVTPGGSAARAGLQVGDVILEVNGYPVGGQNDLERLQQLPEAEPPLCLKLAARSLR
Sequence of DLG4_2, P78352 (P78352 155-259): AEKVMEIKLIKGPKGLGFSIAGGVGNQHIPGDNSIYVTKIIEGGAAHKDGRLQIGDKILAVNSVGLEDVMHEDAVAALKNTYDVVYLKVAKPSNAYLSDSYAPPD
Sequence of SCRIB_2, Q14160 (Q14160 857-960): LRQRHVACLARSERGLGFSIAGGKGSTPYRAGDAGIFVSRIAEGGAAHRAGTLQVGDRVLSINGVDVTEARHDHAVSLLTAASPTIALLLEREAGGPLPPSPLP
Sequence of Inadl_8, Q8NI35 (Q8NI35 1425-1530): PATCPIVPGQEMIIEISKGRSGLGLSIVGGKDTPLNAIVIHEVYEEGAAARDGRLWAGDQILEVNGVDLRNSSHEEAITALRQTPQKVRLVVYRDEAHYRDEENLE
Sequence of DLG2_2, Q15700 (Q15700 189-283): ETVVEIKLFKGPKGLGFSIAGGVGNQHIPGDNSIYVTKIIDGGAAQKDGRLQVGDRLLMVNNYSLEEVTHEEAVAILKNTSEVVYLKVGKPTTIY
Sequence of MAST2, Q6P0Q8 (Q6P0Q8 1099-1202): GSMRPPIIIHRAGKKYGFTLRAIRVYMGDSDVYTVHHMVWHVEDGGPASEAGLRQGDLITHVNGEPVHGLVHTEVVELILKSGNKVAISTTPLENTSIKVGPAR
Sequence of NHERF4_1, Q86UT5-2 (Q86UT5 other isoform, or with tags, fused parts or gaps): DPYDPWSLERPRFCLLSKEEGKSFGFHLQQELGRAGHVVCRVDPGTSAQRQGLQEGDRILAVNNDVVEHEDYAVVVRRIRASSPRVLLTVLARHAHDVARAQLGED
Sequence of LNX1_1, Q8TBB1 (Q8TBB1 261-371): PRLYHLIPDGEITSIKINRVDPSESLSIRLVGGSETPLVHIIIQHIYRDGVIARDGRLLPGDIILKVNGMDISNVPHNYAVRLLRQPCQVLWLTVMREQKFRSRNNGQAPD
Sequence of MAGI2_3, Q86UL8 (Q86UL8 600-682): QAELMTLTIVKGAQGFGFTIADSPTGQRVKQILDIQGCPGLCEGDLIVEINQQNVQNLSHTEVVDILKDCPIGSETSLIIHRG
Sequence of GRIP2_3, Q9C0E4 (Q9C0E4 238-339): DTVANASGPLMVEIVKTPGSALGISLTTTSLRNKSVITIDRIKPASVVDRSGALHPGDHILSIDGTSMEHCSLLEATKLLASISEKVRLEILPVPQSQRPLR
Sequence of FRMPD2_1, Q68DX3 (Q68DX3 770-861): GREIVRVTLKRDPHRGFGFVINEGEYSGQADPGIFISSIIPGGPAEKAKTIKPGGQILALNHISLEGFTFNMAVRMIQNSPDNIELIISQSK
Sequence of LIMK2, P53671 (P53671 143-248): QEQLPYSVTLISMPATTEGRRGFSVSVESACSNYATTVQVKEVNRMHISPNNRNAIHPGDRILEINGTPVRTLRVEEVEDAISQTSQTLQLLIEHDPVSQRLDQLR
Sequence of Inadl_2, Q8NI35 (Q8NI35 238-335): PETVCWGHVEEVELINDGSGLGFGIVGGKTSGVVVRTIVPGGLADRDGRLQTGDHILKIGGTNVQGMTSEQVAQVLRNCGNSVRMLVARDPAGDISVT
Sequence of LNX1_3, Q8TBB1 (Q8TBB1 500-596): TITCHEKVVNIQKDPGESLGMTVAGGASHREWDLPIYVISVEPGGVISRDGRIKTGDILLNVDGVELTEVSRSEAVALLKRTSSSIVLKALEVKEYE
Sequence of DLG4_3, P78352 (P78352 306-403): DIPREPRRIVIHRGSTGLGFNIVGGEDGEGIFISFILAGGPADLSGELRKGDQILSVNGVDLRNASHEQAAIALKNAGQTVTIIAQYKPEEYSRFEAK

Q: What does the source list for ELIQDTSTSFSTTREW [ARAP3_int, Q8WWN8]?
A: pKd [1, 32]: below the threshold; pKd [2, 32]: below the threshold; pKd [3, 32]: below the threshold; pKd [4, 32]: below the threshold; pKd [5, 32]: 3.83; pKd [6, 32]: below the threshold; pKd [7, 32]: below the threshold; pKd [8, 32]: 3.55; pKd [9, 32]: below the threshold; pKd [10, 32]: below the threshold; pKd [11, 32]: below the threshold; pKd [12, 32]: below the threshold; pKd [13, 32]: below the threshold; pKd [14, 32]: below the threshold; pKd [15, 32]: below the threshold; pKd [16, 32]: below the threshold; pKd [17, 32]: below the threshold; pKd [18, 32]: below the threshold; pKd [19, 32]: below the threshold; pKd [20, 32]: 3.5; pKd [21, 32]: below the threshold; pKd [22, 32]: below the threshold; pKd [23, 32]: below the threshold; pKd [24, 32]: below the threshold; pKd [25, 32]: below the threshold; pKd [26, 32]: below the threshold; pKd [27, 32]: below the threshold; pKd [28, 32]: below the threshold; pKd [29, 32]: below the threshold; pKd [30, 32]: below the threshold; pKd [31, 32]: below the threshold

Q: With HRTCYLVTQL [ASIC3, Q9UHC3] as the binder, how does the pKd [1, 33] read?
A: The pKd was 3.78.

Q: And the pKd [2, 33]?
A: The pKd was 3.37.

Q: What about the pKd [3, 33] of the same binder?
A: The pKd was 4.55.

Q: And the pKd [4, 33]?
A: The pKd was 5.24.

Q: What about the pKd [5, 33] of the same binder?
A: The pKd was 4.25.

Q: What about the pKd [6, 33] of the same binder?
A: Its pKd is 4.63.

Q: What about the pKd [7, 33] of the same binder?
A: The pKd was 5.11.

Q: And the pKd [8, 33]?
A: Its pKd is 3.45.

Q: And the pKd [9, 33]?
A: Its pKd is 3.6.

Q: And the pKd [10, 33]?
A: Its pKd is “below the threshold”.

Q: And the pKd [11, 33]?
A: The pKd was 5.54.

Q: What about the pKd [12, 33] of the same binder?
A: Its pKd is 4.03.

Q: What about the pKd [13, 33] of the same binder?
A: The pKd was “below the threshold”.

Q: What about the pKd [14, 33] of the same binder?
A: The pKd was 3.8.

Q: What about the pKd [15, 33] of the same binder?
A: The pKd was 3.43.

Q: And the pKd [16, 33]?
A: Its pKd is 4.83.

Q: What about the pKd [17, 33] of the same binder?
A: The pKd was 3.93.

Q: And the pKd [18, 33]?
A: Its pKd is 3.55.

Q: And the pKd [19, 33]?
A: Its pKd is 4.56.

Q: What about the pKd [20, 33] of the same binder?
A: Its pKd is 3.47.

Q: And the pKd [21, 33]?
A: Its pKd is 3.37.

Q: What about the pKd [22, 33] of the same binder?
A: The pKd was 3.77.

Q: What about the pKd [23, 33] of the same binder?
A: Its pKd is “below the threshold”.

Q: What about the pKd [24, 33] of the same binder?
A: The pKd was 3.73.

Q: And the pKd [25, 33]?
A: The pKd was 3.49.

Q: And the pKd [26, 33]?
A: Its pKd is “below the threshold”.

Q: What about the pKd [27, 33] of the same binder?
A: The pKd was 4.49.

Q: And the pKd [28, 33]?
A: Its pKd is 4.8.

Q: And the pKd [29, 33]?
A: Its pKd is “below the threshold”.

Q: What about the pKd [30, 33] of the same binder?
A: Its pKd is 3.97.

Q: And the pKd [31, 33]?
A: Its pKd is 4.79.

Q: Which results are given for GGPKEEESPV [SLC16A1, P53985]?
A: pKd [1, 33]: below the threshold; pKd [2, 33]: 4.75; pKd [3, 33]: below the threshold; pKd [4, 33]: 4.3; pKd [5, 33]: below the threshold; pKd [6, 33]: 3.62; pKd [7, 33]: 5.27; pKd [8, 33]: below the threshold; pKd [9, 33]: below the threshold; pKd [10, 33]: below the threshold; pKd [11, 33]: 5.18; pKd [12, 33]: below the threshold; pKd [13, 33]: below the threshold; pKd [14, 33]: below the threshold; pKd [15, 33]: below the threshold; pKd [16, 33]: below the threshold; pKd [17, 33]: below the threshold; pKd [18, 33]: below the threshold; pKd [19, 33]: below the threshold; pKd [20, 33]: below the threshold; pKd [21, 33]: below the threshold; pKd [22, 33]: below the threshold; pKd [23, 33]: below the threshold; pKd [24, 33]: below the threshold; pKd [25, 33]: below the threshold; pKd [26, 33]: below the threshold; pKd [27, 33]: below the threshold; pKd [28, 33]: 3.63; pKd [29, 33]: below the threshold; pKd [30, 33]: 3.5; pKd [31, 33]: below the threshold
